Patent US20150203577A1 (Chugai, published 2015)
Substitutions are numbered along the chain they refer to.

T1: mouse FcγRII extracellular domain with C-terminal His tag (mouse, UniProt P08101 30-210)
T1 construct: Made on the basis of NCBI NP-034317.1; also called mFcγRII; mFcgRII
T1 sequence: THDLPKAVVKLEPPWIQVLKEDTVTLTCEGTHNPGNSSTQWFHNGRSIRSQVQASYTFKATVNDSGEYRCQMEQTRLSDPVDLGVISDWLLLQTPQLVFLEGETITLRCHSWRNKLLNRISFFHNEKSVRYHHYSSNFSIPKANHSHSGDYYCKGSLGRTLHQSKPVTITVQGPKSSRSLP

T2: mouse FcγRIII extracellular domain with C-terminal His tag (mouse, UniProt P08508 31-215)
T2 construct: Made on the basis of NCBI NP-034318.2; also called mFcγRIII; mFcgRIII
T2 chain: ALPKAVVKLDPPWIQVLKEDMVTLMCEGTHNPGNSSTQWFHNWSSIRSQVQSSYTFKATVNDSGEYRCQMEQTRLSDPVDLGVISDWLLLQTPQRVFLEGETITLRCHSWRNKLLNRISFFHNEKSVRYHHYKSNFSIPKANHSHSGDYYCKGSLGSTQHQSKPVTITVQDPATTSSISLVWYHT

B1: H237-MB404/MRAL-k0 (antibody, mouse IgG1, kappa)
heavy: QVQLQESGPGLVKPSETLSLTCAVSGHSISHDHAWSWVRQPPGEGLEWIGFISYSGITNYNPSLQGRVTISRDNSKNTLYLQMNSLRAEDTAVYYCARSLARTTAMDYWGEGTLVTVSSAKTTPPSVYPLAPGSAAQTNSMVTLGCLVKGYFPEPVTVTWNSGSLSSGVHTFPAVLQSDLYTLSSSVTVPSSTWPSETVTCNVAHPASSTKVDKKIVPRDCGCKPCICDAYEVEDVFIFPPKPKDVLTITLTPKVTCVVVDISKDDPEVQFSWFVDDVEVHTAQTQPREEQFNSTFRSVSELPIMHQDWLNGKEFKCRVNSAAFPAPIEKTISKTKGRPKAPQVYTIPPPKEQMAKDKVSLTCMITDFFPEDITVEWQWNGQPAENYKNTQPIMDTDGSYFVYSKLNVQKSNWEAGNTFTCSVLHEGLHNHHTEKSLSHSPGK
light: not shown
notes: also called M8404; copies: 2 + 2
B2: H237-MB416/MRAL-k0 (antibody, mouse IgG1, kappa)
heavy: B1 heavy with D229P, A230D
light: not shown
notes: copies: 2 + 2
B3: H237-MB427/MRAL-k0 (antibody, mouse IgG1, kappa)
heavy: B1 heavy with D229Q, A230P, Y231A
light: not shown
notes: copies: 2 + 2
B4: H237-MB423/MRAL-k0 (antibody, mouse IgG1, kappa)
heavy: B1 heavy with D229T, A230N
light: not shown
notes: copies: 2 + 2
B5: H237-MB417/MRAL-k0 (antibody, mouse IgG1, kappa)
heavy: B1 heavy with D229Q, A230D
light: not shown
notes: copies: 2 + 2
B6: H237-MB419/MRAL-k0 (antibody, mouse IgG1, kappa)
heavy: B1 heavy with A230N
light: not shown
notes: copies: 2 + 2
B7: H237-MB428/MRAL-k0 (antibody, mouse IgG1, kappa)
heavy: B1 heavy with D229T, A230P, Y231A
light: not shown
notes: copies: 2 + 2
B8: H237-MB409/MRAL-k0 (antibody, mouse IgG1, kappa)
heavy: B1 heavy with A230V
light: not shown
notes: copies: 2 + 2
B9: H237-MB408/MRAL-k0 (antibody, mouse IgG1, kappa)
heavy: B1 heavy with D229T
light: not shown
notes: copies: 2 + 2
B10: H237-MB424/MRAL-k0 (antibody, mouse IgG1, kappa)
heavy: B1 heavy with A230P, Y231A
light: not shown
notes: copies: 2 + 2
B11: H237-MB420/MRAL-k0 (antibody, mouse IgG1, kappa)
heavy: B1 heavy with D229I, A230N
light: not shown
notes: copies: 2 + 2
B12: H237-MB418/MRAL-k0 (antibody, mouse IgG1, kappa)
heavy: B1 heavy with D229T, A230D
light: not shown
notes: copies: 2 + 2
B13: H237-MB415/MRAL-k0 (antibody, mouse IgG1, kappa)
heavy: B1 heavy with D229I, A230D
light: not shown
notes: copies: 2 + 2
B14: H237-MB422/MRAL-k0 (antibody, mouse IgG1, kappa)
heavy: B1 heavy with D229Q, A230N
light: not shown
notes: copies: 2 + 2
B15: H237-MB411/MRAL-k0 (antibody, mouse IgG1, kappa)
heavy: B1 heavy with D229P, A230V
light: not shown
notes: copies: 2 + 2
B16: H237-MB421/MRAL-k0 (antibody, mouse IgG1, kappa)
heavy: B1 heavy with D229P, A230N
light: not shown
notes: copies: 2 + 2
B17: H237-MB412/MRAL-k0 (antibody, mouse IgG1, kappa)
heavy: B1 heavy with D229Q, A230V
light: not shown
notes: copies: 2 + 2
B18: H237-MB406/MRAL-k0 (antibody, mouse IgG1, kappa)
heavy: B1 heavy with D229P
light: not shown
notes: copies: 2 + 2
B19: H237-MB414/MRAL-k0 (antibody, mouse IgG1, kappa)
heavy: B1 heavy with A230D
light: not shown
notes: copies: 2 + 2
B20: H237-MB407/MRAL-k0 (antibody, mouse IgG1, kappa)
heavy: B1 heavy with D229Q
light: not shown
notes: copies: 2 + 2
B21: H237-MB429/MRAL-k0 (antibody, mouse IgG1, kappa)
heavy: B1 heavy with A230P, Y231N
light: not shown
notes: copies: 2 + 2
B22: H237-MB405/MRAL-k0 (antibody, mouse IgG1, kappa)
heavy: B1 heavy with D229I
light: not shown
notes: copies: 2 + 2
B23: H237-MB426/MRAL-k0 (antibody)
heavy: B1 heavy with D229P, A230P, Y231A
light: not shown
notes: copies: 2 + 2
B24: H237-MB413/MRAL-k0 (antibody, mouse IgG1, kappa)
heavy: B1 heavy with D229T, A230V
light: not shown
notes: copies: 2 + 2

target: T1, mouse FcγRII extracellular domain with …; assay: SPR Biacore T200
Procedure: (§1) Each altered antibody was analyzed for its interaction with each Fcγ receptor prepared above using Biacore T100 (GE Healthcare Japan Corp.), Biacore T200 (GE Healthcare Japan Corp.), Biacore A100, or Biacore 4000. The running buffer used was HBS-EP+ (GE Healthcare Japan Corp.). The assay temperature was set to 25° C. The sensor chips used were chips prepared by immobilizing Protein L (ACTIGEN or BioVision) onto Series S Sensor Chip CM5 (GE Healthcare Japan Corp.) or Series S Sensor Chip CM4 (GE Healthcare Japan Corp.) by the amine coupling method.
(§2) In order to calculate the KD value of each altered antibody for FcγR, kinetic analysis was conducted according to the following method: first, the antibody of interest was captured onto any of these chips and allowed to interact with mFcγR diluted with a running buffer. For the obtained sensorgram, the assay results were globally fit into the 1:1 Langmuir binding model using Biacore Evaluation Software to calculate an association rate constant ka (L/mol/s) and a dissociation rate constant kd (1/s). From these values, the dissociation constant KD (mol/L) was calculated.

Kd [nM]	relative mFcγRII-binding activity (mIgG1 = 1)	Binder
0.891	236	B1
–	189	B2
0.966	217	B3
–	143	B4
–	190	B5
0.974	216	B6
0.977	215	B7
–	192	B8
–	163	B9
–	104	B10
–	124	B11
0.802	262	B12
–	159	B13
–	144	B14
–	132	B15
–	178	B16
–	113	B17
–	191	B18
–	189	B19
–	164	B20
–	137	B21
–	146	B22
–	112	B23
–	108	B24

Target: T2, mouse FcγRIII extracellular domain with …
Assay: SPR Biacore T200
Procedure: as §1, §2

Kd [nM]	relative mFcγRIII-binding activity (mIgG1 = 1)	Binder
33	8.6	B1
–	6.3	B2
40.3	7	B3
–	9.2	B4
–	10.7	B5
24.3	11.6	B6
32	8.8	B7
–	10.7	B8
–	13.1	B9
–	5.1	B10
–	7.1	B11
14.1	20	B12
–	9.1	B13
–	8.9	B14
–	8.1	B15
–	9	B16
–	8.3	B17
–	6.5	B18
–	8.1	B19
–	9.8	B20
–	6.8	B21
–	8	B22
–	4.4	B23
–	11.9	B24

target: T1, mouse FcγRII extracellular domain with …; assay: SPR Biacore T200; KD mFcγRIII / KD mFcγRII
Procedure: as §1, §2

I/A (mFcγRII selectivity)	relative I/A (mFcγRII selectivity) (mIgG1 = 1)	Binder
37	27.6	B1
–	30.2	B2
41.7	31.1	B3
–	15.5	B4
–	17.8	B5
25	18.6	B6
32.7	24.4	B7
–	18	B8
–	12.5	B9
–	20.4	B10
–	17.5	B11
17.6	13.1	B12
–	17.5	B13
–	16.3	B14
–	16.4	B15
–	19.9	B16
–	13.7	B17
–	29.6	B18
–	23.6	B19
–	16.9	B20
–	20.3	B21
–	18.2	B22
–	25.2	B23
–	9.1	B24
